Experiment [1] concerns human or cynomolgus antigen (EGFR, HER2 or HER3). In words: Off-rate ranking of library hits (Octet QK384, Protein G biosensors). The format is binding. Particulars: expression supernatant, antigen at 200 nM, dissociation 20 min. As to the method: Approximately 100 hits from each library that yielded an OD signal similar to or higher than that of the chimeric parent antibody were subjected to off-rate ranking using an Octet® QK384 instrument (Fortebio, Menlo Park, Calif.). Protein G biosensors (Fortebio) were used for capturing of antibody from 40 μl of expression supernatant followed by incubation with human or cynomolgus antigen at 200 nM. Human antigens were obtained from Sino Biologicals and cynomolgus antigens were produced in-house by transient expression in CHO or HEK293 cells (Koefoed et al. (2011) mAbs, 3:6, 1-12). Subsequently, the biosensors were incubated in PBS and the dissociation of antigen was recorded for 20 min to allow for a reliable determination of the dissociation rates. The responses were globally fitted to a Langmuir 1:1 binding model for calculation of dissociation constants.
On the technique in general: In BLI a coated tip is dipped into the sample, and binding shifts an interference pattern.

The subject of experiment [2] is A431NS, H358, FaDu, OE19, BT474, MDA-MB-175 VII, MCF-7, N87, HN5, MFE-280 cancer cell lines. In words: Viability assay (WST-1) of humanized variants with partner antibody and of six-antibody mixtures. It is filed as cell-based, human. Particulars: two cell lines per variant, 96 hours. As to the method:
Each humanized variant was tested in two cell lines and compared to the parental mixture of two chimeric antibodies and to a negative control antibody. […] In addition, a combination of six humanized variants (11294, 11302, 11249, 11145, 10738 and 11052; Humanized Pan-HER) was tested in a number of cell lines and compared to the combination of the six chimeric antibodies (1277, 1565, 4384, 4517, 5038 and 5082; Chimeric Pan-HER). The cell lines used, N87 gastric, FaDu head and neck, A431NS epidermoid, OE19 esophageal, HN5 head and neck, MDA-MB-175 VII breast and MFE-280 endometrial cancer, were selected on the basis of their previously determined dependency on the HER family receptors.
Prior to performing the viability assay the appropriate antibodies and antibody mixtures were diluted to a final total antibody concentration of 100 μg/ml in appropriate media supplemented with 0.5-2% FBS and 1% P/S (penicillin/streptomycin), yielding a final total antibody concentration of 50 μg/ml in the well containing the highest antibody concentration. A threefold serial dilution of the antibodies was then performed in a 384-well plate, followed by addition of relevant numbers of cells to the experimental wells. The MCF-7 cells were also stimulated with 1 nM heregulin beta. The plates were incubated for 4 days in a humidified incubator at 37° C. WST-1 reagent (Roche Applied Science, Mannheim, Germany) was added to the plates and the plates were incubated for 1-3 h at 37° C. Plates were transferred to an orbital plate shaker for one h and the absorbance was measured at 450 and 620 nm (reference wavelength) using an ELISA reader. The percentage of metabolically active cells (MAC) is calculated as a percentage of the untreated control as follows: […]

Experiment [3] has as its system EGFR, HER2 and HER3 from humans, cynomolgus monkeys and mice, human and murine HER4. Kind of experiment: Cross-reactivity ELISA with coated antigens. The format is binding, mouse. To be noted: OD at 450 nm, 40 nM antibody, compared to chimeric parent. As to the method:
Antibody-antigen binding was measured by ELISA with coated antigens. Human antigens were obtained from Sino Biologicals. All other antigens were produced in-house by transient expression in CHO or HEK293 cells. Chimeric and humanized antibodies, as well as an isotype control antibody, were incubated with the coated antigens at different concentrations. After wash, bound antibodies were detected by HRP-(horse radish peroxidase)-conjugated secondary antibodies. The OD signal from 40 nM antibody, measured at 450 nm using an ELISA reader, was scored from negative (−; OD<0.1) to strongly positive (+++; OD>2.5).
A general note: An ELISA detects its analyte on a solid surface through an enzyme-linked reagent.

The target in experiment [4] is T1, human HER3 (Homo sapiens, UniProt P21860).
T1 construct: against soluble antigen under monovalent conditions; purchased Sino Biologicals
Kind of experiment: Kinetic binding analysis by surface plasmon resonance (ProteOn XPR36, IgG capture). Particulars: Human antigen. Here is the method:
(§1) Kinetic binding analysis of the purified humanized variants was performed on a ProteOn™ XPR36 biosensor (BioRad, USA) employing an IgG capture assay as described by Canziani et al. (Anal. Biochem. (2004) 325:301-307) that allows for measurement of antibody affinities of whole IgG molecules against soluble antigen under monovalent conditions. Briefly, approximately 5000 resonance units (RU) of a monoclonal mouse anti-human IgG Fc antibody (GE Healthcare, Denmark) was conjugated to a GLC chip surface (BioRad, USA) according to the manufacturer's instructions, followed by capture of individual antibodies of the invention or a negative control on the anti-Fc sensor surface. […] Next, 250 μl monovalent antigen (Sino Biologicals) was injected at a flow rate of 50 μl/min in serial threefold dilutions from 100 nM stock to generate response curves. The chip surface was regenerated between cycles by stripping the captured antibody/antigen complexes off the surface with a 10-second injection of 3 M MgCl2 (GE Healthcare, Denmark) repeated three times. Finally, binding responses were fitted to a Langmuir 1:1 binding model for calculation of the on-rate (kon or ka), off-rate (koff or kd) and affinity (KD) constants using double referencing.
In general terms: Surface plasmon resonance follows binding to a sensor surface in real time, without labels.

The subject of experiment [5] is cynomolgus HER3. Described as above. Particulars: Cynomolgus antigen. As to the method:
as §1

Where only a bound is given, the exact number is not on record here.

B1: antibody 11006: humanized anti-HER3 antibody from chimeric parent 5082; HC SEQ ID NO: 58, LC SEQ ID NO: 59 (antibody, V domains shown)
VH: QVQLQESGPGLVKPSQTLSLTCTVSGYSITSAYYWNWIRQHPGKGVEWMGYIGYSGRNTYNPSLKNRVTISRDTSKNQFSLKLSSVTAADTAVYYCSREGDYGYSDYWGQGTLVTVSS
VL: DIQMTQSPSSLSASVGDRVTVTCRASQDTNNYLNWYQQKPGKAVKLLIYYTSRLQSGVPSRFSGSGSGTDFTLTISSLQPEDFATYFCQQSETLPWTFGQGTKVEIK
With B1, the “dissociation rate (off-rate ranking) compared to parent antibody” value in experiment [1] was “improved dissociation rate”. Besides, the “anti-proliferative effect in combination with partner antibody, compared to mixture of the two chimeric parent antibodies” value in experiment [2] is listed as “highly similar anti-proliferative effects”. For the same molecule, the “cross-reactivity pattern with HER family antigens” value in experiment [3] is “binding to the same human and cynomolgus antigen combined with lack of binding to the mouse antigen or to other EGFR family receptors”. Also, the ka in experiment [4] was determined as 740000 M⁻¹ s⁻¹; in experiment [5], 1.5e+06 M⁻¹ s⁻¹. In addition, the kd in experiment [4] is less than 2e-06 s⁻¹; in experiment [5], 8.7e-05 s⁻¹. In experiment [4] (KD could not be determined due to a very slow off-rate), the “KD (estimated)” value is recorded as “*KD could not be determined due to a very slow off-rate. Estimated to be in the picomolar range”.
